A word on the Kd: it is the constant that tells how readily two partners part at equilibrium. A lower Kd goes with higher affinity.

For 7 molecules, Kd results are on record in article PMC5961234.

The target of the data set is human alpha-thrombin (Homo sapiens, UniProt P00734;P00734 328-363;364-622). As to the kind of experiment: BLI. A general note: BLI is a label-free optical method that tracks binding on a fibre tip over time.

GGTTGGTGTGGTTGG (structured_DNA, none) [TBA] yielded a Kd of 2.8 nM. This counts as single-digit nanomolar.

As for GGTTGGTGTGGTTGG (structured_DNA, T4 = W, 5-(indolyl-3-acetyl-3-amino-1-propenyl)-2'-deoxyuridine (written T)) [T4W], the Kd worked out at 1 nM. This Kd is about 2.8-fold lower than that of the molecule before.

The molecule GGTTGGTGTGGTTGG (structured_DNA, T4 = K, 5-(methyl-3-acetyl-3-amino-1-propenyl)-2'-deoxyuridine (written T)) [T4K] had a Kd of 0.39 nM.

Consider GGTTGGTGTGGTTGG (structured_DNA, T7 = W, 5-(indolyl-3-acetyl-3-amino-1-propenyl)-2'-deoxyuridine (written T)) [T7W], for which the equilibrium dissociation constant (Kd) was 1.7 nM. Compared with the last molecule, the Kd is about 4.4-fold higher.

B1: T4WT12W (structured_DNA)
DNA: GGTTGGTGTGGTTGG
modifications: T4 and T12 = W, 5-(indolyl-3-acetyl-3-amino-1-propenyl)-2'-deoxyuridine (written T)
Regarding B1, the affinity, expressed as Kd, was 0.31 nM.

For the molecule GGTTGGTGTGGTTGG (structured_DNA, T12 = W, 5-(indolyl-3-acetyl-3-amino-1-propenyl)-2'-deoxyuridine (written T)) [T12W], binding was put at a Kd of 1.3 nM. Against the preceding molecule, the Kd is about 4.2-fold higher.

For GGTTGGTGTGGTTGG (structured_DNA, T3 = W, 5-(indolyl-3-acetyl-3-amino-1-propenyl)-2'-deoxyuridine (written T)) [T3W], the Kd is 3.9 nM.
